Data as given in patent US12338483.

Assays:
[1] = test system: MMP substrate (Example 3)
[2] = test system: GzmB/MMP AND-gate protease activity sensor
[3] = test system: MMP substrate of the biocomparator peptide cage (Example 4)
[4] = test system: GzmB substrate (individual protease substrate labeled with a fluorescent quencher and dye, nanoparticle-conjugated)
[5] = test system: T1, GzmB/Thrb AND-gate protease activity sensor
T1 sequence: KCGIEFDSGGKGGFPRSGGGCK

[6] = test system: Thrb substrate (individual protease substrate labeled with a fluorescent quencher and dye, nanoparticle-conjugated)

Sequence of MMP1 (P03956 100-469): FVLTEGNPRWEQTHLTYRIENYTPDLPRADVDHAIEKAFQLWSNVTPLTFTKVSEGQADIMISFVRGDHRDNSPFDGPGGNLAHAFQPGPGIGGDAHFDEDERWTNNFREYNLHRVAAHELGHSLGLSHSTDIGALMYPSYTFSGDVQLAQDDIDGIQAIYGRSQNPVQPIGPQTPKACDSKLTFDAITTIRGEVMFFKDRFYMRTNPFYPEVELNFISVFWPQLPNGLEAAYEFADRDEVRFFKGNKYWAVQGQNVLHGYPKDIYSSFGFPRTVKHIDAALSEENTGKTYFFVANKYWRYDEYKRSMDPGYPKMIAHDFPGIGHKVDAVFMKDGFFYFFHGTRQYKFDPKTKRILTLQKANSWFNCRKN

Substance	change in fluorescence in a cleavage assay (kinetic trace) [1]	change in fluorescence in a cleavage assay (quenched substrate) [4]	change in fluorescence in a cleavage assay (AND-gate sensor) [5]	change in fluorescence in a cleavage assay (quenched substrate) [6]	further results
MMP1	The substrate was cleaved with high activity by MMP1, MMP8, and MMP13	–	–	–	–
MMP8	The substrate was cleaved with high activity by MMP1, MMP8, and MMP13	–	–	–	fluorescent signal in a cleavage assay (AND-gate sensor with GzmB and a second protease) [2]: The sensor produced low signals with the viral proteases compared to MMP8
MMP9	–	–	–	–	fluorescent cleavage assay [3]: Results also confirmed MMP9 can cleave the MMP substrate by cleavage assay
MMP13	The substrate was cleaved with high activity by MMP1, MMP8, and MMP13	–	–	–	–
granzyme B (GzmB)	–	the GzmB substrate was cleaved effectively by GzmB alone	The reporter molecule emits a high fluorescent signal when both proteases are present together but not when either protease is present alone	the Thrb substrate was cleaved only by Thrb	fluorescent signal in a cleavage assay (AND-gate sensor with each MMP, with and without GzmB) [2]: > 2 fold
thrombin (Thrb)	–	the GzmB substrate was cleaved effectively by GzmB alone	The reporter molecule emits a high fluorescent signal when both proteases are present together but not when either protease is present alone	the Thrb substrate was cleaved only by Thrb	–
